This note sets out measurements from US10836794B2, “Group of peptides for treating female sexual dysfunction” (“IVIX” Ltd., priority 2016, dated 2020).

Non-standard residues stand in square brackets, D forms with d. No end group written: not given here. Hyp = O=C(O)[C@@H]1C[C@@H](O)CN1

A short description of data set [1]: Stability of liquid pharmaceutical forms (peptide 0.2 %, benzalkonium chloride 0.01 %, water) during storage; single and total impurities. In kind it is physicochemical. The source says: Investigations of the Stability of Pharmaceutical Forms Containing Peptides Having the Property of Stimulating the Genital and Sexual Functions
This experiment investigated the stability of compositions containing peptides according to the invention. The results of the investigations are illustrated by the example of several peptides according to the invention containing hydroxyproline, in particular Thr-Lys-Hyp […], Thr-Lys-Hyp-Arg-Hyp (SEQ ID NO: 13), Thr-Lys-Hyp-Arg-Hyp-Phe and Thr-Lys-Hyp-Arg-Hyp-Gly-Hyp (SEQ ID NO: 14).
The peptides described in RU2507212 were also obtained, in particular Thr-Lys-Pro, Thr-Lys-Pro-Arg-Pro (SEQ ID NO: 6), Thr-Lys-Pro-Arg-Pro-Phe (SEQ ID NO: 7) and Thr-Lys-Pro-Arg-Pro-Gly-Pro (SEQ ID NO: 1).
From the compounds obtained, a liquid pharmaceutical form (a solution) was prepared, including the peptide and the preservative benzalkonium chloride with the following ratio of components: 0.2 and 0.01 mass %, respectively, water the rest. Samples were placed in storage at two temperature regimes, namely, +4° C. and +25° C. Investigation of the stability of the peptides was carried out after 1, 3, 6, 12, and 24 months of storage. In the investigation of the samples for stability, the quantity of single impurities and the total quantity of impurities were evaluated, testifying to the degradation of the peptides. The pharmaceutical requirements of the company for impurities are: any single impurity, not more than 1.5%; total content of impurities, not more than 3.0%. If the content of impurities exceeded the above indicated values, the pharmaceutical form was deemed to have failed the test for stability.

The test system of another data set is female rats. Briefly: Efficacy in vivo on preclinical model (Lordoz test): proceptive behavior of ovarioectomized, hormonally stimulated females. The settings on record: 100 mcg/rat, progesterone 0.5 mg/rat. On the procedure: Investigation of the Efficacy of the Peptides of the Invention as a Means of Stimulating the Genital and Sexual Functions
In order to confirm the efficacy as a means of stimulating the genital and sexual functions, peptides according to the invention were synthesized, in particular the tripeptide Thr-Lys-Hyp, the pentapeptide Thr-Lys-Hyp-Arg-Hyp (SEQ ID NO: 12), and the hexapeptide Thr-Lys-Hyp-Arg-Hyp-Phe (SEQ ID NO: 13), and tests were performed as to the efficacy in vivo on the relevant preclinical model (Lordoz test). Furthermore, the efficacy of the group of peptides Thr-Lys-Pro, Thr-Lys-Pro-Arg-Pro (SEQ ID NO: 6), and Thr-Lys-Pro-Arg-Pro-Phe (SEQ ID NO: 7) was also investigated.
The efficacy of the aforementioned groups of peptides was investigated in a dose of 100 mcg/rat with respect to the sexual behavior of female rats. The sexual behavior was registered over the course of 0-16 days in ovarioectomized, hormonally stimulated females in the case of direct contact with sexually active males and in the case when no such contact was possible. […] The results testify to an increase in sexual motivation under the action of the peptides Thr-Lys-Hyp, Thr-Lys-Hyp-Arg-Hyp (SEQ ID NO: 12), and Thr-Lys-Hyp-Arg-Hyp-Phe (SEQ ID NO: 13).

Setting [2] is: stored for 1 month at +4° C., solution 0.2 mass % peptide, 0.01 mass % benzalkonium chloride.
Setting [3] is: stored for 1 month at +25° C., solution 0.2 mass % peptide, 0.01 mass % benzalkonium chloride.
Where [4] appears, read: stored for 12 months at +25° C.
[5] abbreviates: stored for 24 months at +25° C.

As to “Thr-Lys-Hyp-Arg-Hyp (TK[Hyp]R[Hyp]) [pentapeptide of the invention containing hydroxyproline]”, the Single impurities is 0.03% in data set [1] (setting [2]); 0.046% in data set [1] (setting [3]); 0.03% in data set [1] (stored for 3 months at +4° C.); 0.047% in data set [1] (stored for 3 months at +25° C.); 0.04% in data set [1] (stored for 6 months at +4° C.); 0.1% in data set [1] (stored for 6 months at +25° C.). For the same substance, the Single impurities is 0.07% in data set [1] (stored for 12 months at +4° C.), 0.2% in data set [1] (setting [4]), 0.1% in data set [1] (stored for 24 months at +4° C.) and 0.9% in data set [1] (setting [5]). Moreover, the Total impurities in data set [1] (setting [2]) turned out to be 0.09%; in data set [1] (setting [3]) it was 0.14%; in data set [1] (stored for 3 months at +4° C.), 0.09%; in data set [1] (stored for 3 months at +25° C.) it was 0.15%; in data set [1] (stored for 6 months at +4° C.), 0.1%; in data set [1] (stored for 6 months at +25° C.), 0.7%. Further, the Total impurities is listed as 0.2% in data set [1] (stored for 12 months at +4° C.), 0.9% in data set [1] (setting [4]), 0.7% in data set [1] (stored for 24 months at +4° C.) and 1.2% in data set [1] (setting [5]). The “Number of proceptive behavior acts” value in the data set with female rats (day 0 of giving the drug) stood at 13 ± 4; in the data set with female rats (day 5 of giving the drug) it was 38 ± 4; in the data set on female rats (day 11 of giving the drug) it was 36 ± 4; with female rats (day 16 of giving the drug) it was 36 ± 6.

Consider “Thr-Lys-Hyp-Arg-Hyp-Gly-Hyp (TK[Hyp]R[Hyp]G[Hyp]) [peptide according to the invention containing hydroxyproline]”, for which the Single impurities in data set [1] (setting [2]) amounted to 0.049%; in data set [1] (setting [3]), 0.069%; in data set [1] (stored for 3 months at +4° C.), 0.05%; in data set [1] (stored for 3 months at +25° C.), 0.07%; in data set [1] (stored for 6 months at +4° C.), 0.06%; in data set [1] (stored for 6 months at +25° C.) it was 0.09%. The Single impurities in data set [1] (stored for 12 months at +4° C.) was 0.09%; in data set [1] (setting [4]) it was 0.3%; in data set [1] (stored for 24 months at +4° C.), 0.1%; in data set [1] (setting [5]), 1.2%. The Total impurities was found to be 0.12% in data set [1] (setting [2]); 0.14% in data set [1] (setting [3]); 0.12% in data set [1] (stored for 3 months at +4° C.); 0.5% in data set [1] (stored for 3 months at +25° C.); 0.14% in data set [1] (stored for 6 months at +4° C.); 0.9% in data set [1] (stored for 6 months at +25° C.). In addition, the Total impurities came to 0.3% in data set [1] (stored for 12 months at +4° C.), 1.1% in data set [1] (setting [4]), 1.1% in data set [1] (stored for 24 months at +4° C.) and 2.6% in data set [1] (setting [5]).

With “Thr-Lys-Hyp-Arg-Hyp-Phe (TK[Hyp]R[Hyp]F) [hexapeptide of the invention containing hydroxyproline]”, the Single impurities worked out at 0.067% in data set [1] (setting [2]); 0.032% in data set [1] (setting [3]); 0.068% in data set [1] (stored for 3 months at +4° C.); 0.033% in data set [1] (stored for 3 months at +25° C.); 0.08% in data set [1] (stored for 6 months at +4° C.); 0.09% in data set [1] (stored for 6 months at +25° C.). The Single impurities worked out at 0.1% in data set [1] (stored for 12 months at +4° C.), 0.4% in data set [1] (setting [4]), 0.9% in data set [1] (stored for 24 months at +4° C.) and 1.3% in data set [1] (setting [5]). The Total impurities in data set [1] (setting [2]) came out at 0.15%; in data set [1] (setting [3]), 0.09%; in data set [1] (stored for 3 months at +4° C.), 0.15%; in data set [1] (stored for 3 months at +25° C.) it was 0.09%; in data set [1] (stored for 6 months at +4° C.) it was 0.2%; in data set [1] (stored for 6 months at +25° C.) it was 0.6%. Also, the Total impurities in data set [1] (stored for 12 months at +4° C.) amounted to 0.3%; in data set [1] (setting [4]), 0.8%; in data set [1] (stored for 24 months at +4° C.) it was 1.9%; in data set [1] (setting [5]) it was 2.7%. Besides, the “Number of proceptive behavior acts” value is 14 ± 4 in the data set with female rats (day 0 of giving the drug), 24 ± 4 with female rats (day 5 of giving the drug), 23 ± 4 in the data set with female rats (day 11 of giving the drug) and 24 ± 4 with female rats (day 16 of giving the drug).

Thr-Lys-Pro [reference compound]: the Single impurities in data set [1] (setting [2]) came to 0.051%; in data set [1] (setting [3]), 0.06%; in data set [1] (stored for 3 months at +4° C.), 0.053%; in data set [1] (stored for 3 months at +25° C.), 0.13%; in data set [1] (stored for 6 months at +4° C.), 0.3%; in data set [1] (stored for 6 months at +25° C.), 1.7%. Moreover, the Single impurities in data set [1] (stored for 12 months at +4° C.) amounted to 0.9%; in data set [1] (stored for 24 months at +4° C.), 1.2%. Moreover, the Total impurities in data set [1] (setting [2]) is 0.13%; in data set [1] (setting [3]) it was 0.1%; in data set [1] (stored for 3 months at +4° C.), 0.135%; in data set [1] (stored for 3 months at +25° C.) it was 0.25%; in data set [1] (stored for 6 months at +4° C.), 0.9%; in data set [1] (stored for 6 months at +25° C.), 3.1%. The Total impurities is 1.7% in data set [1] (stored for 12 months at +4° C.) and 2.2% in data set [1] (stored for 24 months at +4° C.). Besides, the “Number of proceptive behavior acts” value with female rats (day 0 of giving the drug) was 14 ± 4; in the data set on female rats (day 5 of giving the drug) it was 15 ± 4; in the data set on female rats (day 11 of giving the drug) it was 20 ± 4; in the data set on female rats (day 16 of giving the drug), 28 ± 4.

Consider “Thr-Lys-Pro-Arg-Pro (TKPRP; not fully specified; printed as Thr-Lys-Pro-Arg-Pro) [pentapeptide described in RU2507212, comparison peptide, reference compound]”, for which the Single impurities in data set [1] (setting [2]) came to 0.042%; in data set [1] (setting [3]), 0.067%; in data set [1] (stored for 3 months at +4° C.) it was 0.042%; in data set [1] (stored for 3 months at +25° C.) it was 0.19%; in data set [1] (stored for 6 months at +4° C.), 0.09%; in data set [1] (stored for 6 months at +25° C.), 1.4%. Moreover, the Single impurities is recorded as 0.8% in data set [1] (stored for 12 months at +4° C.), 4% in data set [1] (setting [4]) and 1.1% in data set [1] (stored for 24 months at +4° C.). For the same substance, the Total impurities in data set [1] (setting [2]) was found to be 0.09%; in data set [1] (setting [3]) it was 0.54%; in data set [1] (stored for 3 months at +4° C.), 0.93%; in data set [1] (stored for 3 months at +25° C.), 0.9%; in data set [1] (stored for 6 months at +4° C.), 1%; in data set [1] (stored for 6 months at +25° C.), 3.0%. The Total impurities in data set [1] (stored for 12 months at +4° C.) is recorded as 1.5%; in data set [1] (setting [4]), 6%; in data set [1] (stored for 24 months at +4° C.), 1.9%. Moreover, the “Number of proceptive behavior acts” value in the data set on female rats (day 0 of giving the drug) came to 12 ± 4; with female rats (day 5 of giving the drug) it was 15 ± 4; in the data set on female rats (day 11 of giving the drug) it was 24 ± 4; in the data set on female rats (day 16 of giving the drug) it was 36 ± 6.

As to “Thr-Lys-Pro-Arg-Pro-Gly-Pro (TKPRPGP; not fully specified; printed as Thr-Lys-Pro-Arg-Pro-Gly-Pro) [heptopeptide “Selank”, a synthetic analogue of the endogenous peptide tuftsin, reference compound]”, the Single impurities in data set [1] (setting [2]) is recorded as 0.05%; in data set [1] (setting [3]), 0.065%; in data set [1] (stored for 3 months at +4° C.), 0.07%; in data set [1] (stored for 3 months at +25° C.) it was 0.9%; in data set [1] (stored for 6 months at +4° C.), 0.8%; in data set [1] (stored for 6 months at +25° C.), 1.7%. Moreover, the Single impurities in data set [1] (stored for 12 months at +4° C.) came out at 1%; in data set [1] (stored for 24 months at +4° C.), 2%. For the same substance, the Total impurities came out at 0.17% in data set [1] (setting [2]); 0.13% in data set [1] (setting [3]); 0.2% in data set [1] (stored for 3 months at +4° C.); 1.2% in data set [1] (stored for 3 months at +25° C.); 1.4% in data set [1] (stored for 6 months at +4° C.); 3.1% in data set [1] (stored for 6 months at +25° C.). The Total impurities in data set [1] (stored for 12 months at +4° C.) was 1.7%; in data set [1] (stored for 24 months at +4° C.), 3.7%.
